What was measured:
PKA signaling pathway = test: Western blotting of PKA and related signaling in primary inguinal cells; assay type: cell-based, Mus musculus; details: for PKA signaling after treatment with conditioned media: serum-free conditioned media from expressing cells, acute treatment (30 min), FIG. 10G
Procedure: (§1) Inguinal and brown stromal-vascular fractions were obtained from 6 weeks old male or newborn mice (postnatal days 5-10) for white and brown fat cultures, respectively. Inguinal fat tissue was dissected and washed with PBS, minced and digested for 45 min at 37° C. in PBS containing 10 mM CaCl2), 2.4 U/ml dispase II (Roche) and 10 mg/ml collagenase D (Roche). Brown fat tissue was dissected, washed with PBS, minced and digested for 45 min at 37° C. in PBS containing 1.3 mM CaCl2, 123 mM NaCl, 5 mM KCl, 5.0 mM glucose, 100 mM HEPES, 4% BSA and 1.5 mg/ml collagenase B (Roche). Digested tissue was filtered through a 100-μm cell strainer and centrifuged at 600 g for 10 min. Pelleted inguinal stromal-vascular cells were grown to confluence and induced to differentiate by an adipogenic cocktail containing 0.02 μM insulin, 1 μM rosiglitazone, 5 μM dexamethasone, 0.5 μM isobuthylmethylxanthine. For differentiation of brown fat cells, 1 nM T3 and 125 μM indomethacin were also added to the adipogenic cocktail. Two days after induction, cells were maintained in adipocyte culture medium containing 0.02 μM insulin and 1 μM rosiglitazone. Where indicated, cells were treated with forskolin (10 μM), norepinephrine (100 nM) for 4 h or with recombinant proteins (1 μg/ml, R&D systems) for 24 h or for the indicated times. For adenoviral overexpression of Slit2-FL, Slit2-N, Slit2-C, LacZ or Cre, virus was added at day 2 of differentiation at a titer of 10^8 particles/well and cells were analyzed at day 6-7. Where indicated, cells were treated with the drugs Erlotinib (SelleckChem), Lapatinib (Santa Cruz), PD0325901 (Santa Cruz), Propranolol (SelleckChem), H89 dihydrochloride (Santa Cruz), SQ-22536 (Santa Cruz) for indicated time points and concentrations.
For Western blotting, homogenized tissues, whole cell lysates, or concentrated serum free conditioned medium were lysed in RIPA buffer containing protease inhibitor cocktail (Thermo Scientific) and phosphatase inhibitor cocktail (Thermo Scientific), separated by SDS-PAGE and transferred to Immobilon-P® membranes (Millipore). For Western blotting of plasma samples, 1 μl of plasma was prepared containing 2× sample buffer (Invitrogen) with reducing agent, boiled and analyzed using Western blot against V5, FLAG, or the indicated antibody. V5-antibody was from Life Technologies and anti-Flag M2-HRP (A8592) from Sigma Aldrich. Anti-Slit2 antibody used was from Abcam (Abcam ab134166). Phospho-PKA Substrate, phospho-PKC Substrate, phospho-ERK1/2, total ERK, phospho-AKT, total AKT, phospho-AMPK, total AMPK, phospho-ATGL, ATGL, phospho-EGFR and EGFR were from Cell Signaling. Protein array was from R&D Systems (Proteome Profiler Mouse Phospho-RTK Array Kit, ARY014). Silverstain (SilverQuest™ Silver Staining Kit, LC6070) was purchased from Thermo Fisher.

lean mice = test: Tissue gene expression after intravenous delivery of adenovirus to lean mice; assay type: in vivo, Mus musculus
Procedure: All animal experiments were approved by the Institutional Animal Care and Use Committee of the Beth Israel Deaconess Medical Center. Mice (Mus musculus) were obtained from Jackson Laboratories, maintained in 12 hour light-lark cycles (6 a.m.-6 p.m.) at 22° C., and fed a standard irradiated rodent chow diet or a high-fat diet (60% fat) for 12-20 weeks. AAV-8 viruses (Penn Vector Core) and adenoviruses (Vector Biolabs or constructed in-house) were injected at a titer of 10^11 or 10^10 per mouse, respectively. All experiments were done with male mice. The aP2-PRDM16 transgenic mice have been previously described in Seale et al. (2011) J. Clin. Invest. 121:96-105. PRDM16-floxed mice were crossed with adiponectin-Cre and were maintained on a pure C57BL/6 background (Cohen et al. (2014) Cell 156:304-316). The Slit2-floxed mice have been described previously in Rama et al. (2015) Nat. Med. 21:483-491. Lean C57BL/6 mice were obtained from Jackson Laboratories and were […].
(§2) RNA was extracted from cultured cells or frozen tissue samples using TRIzol®, purified with QIAGEN RNeasy® minicolumns. Normalized RNA was reversed transcribed using a high-capacity cDNA reverse transcription lot (Applied Biosystems) and cDNA was analyzed by qRT-CPR. Relative mRNA levels were calculated using the comparative CT method and normalized to cyclophilin miRNA. All primers used are listed with their sequences in Table 3 as follows: […]
Slit2 full-length (untagged and Myc-DDK tagged) expression plasmids and corresponding LacZ control plasmids in adenovirus was purchased from Vector Biolabs. To construct the Slit2-N and Slit2-C ENTR clones, PCR primers were designed to amplify the signal peptide, N-terminal, and C-terminal Slit2 from mouse cDNA (OriGene MR227608). To construct the Slit2-N and Slit2-C ENTR clone, the Slit2N gene was amplified from mouse Slit2 cDNA to create PCR fragments corresponding to Slit2-signal peptide and Slit2-N that were ligated into the pENTR1a dual selection vector. The Slit2-C PCR fragment was sub-cloned into the pENTR1a vector containing the signal peptide. The Slit2-N and Slit2-C expression clones in which the fragments are fused to a C-terminal V5 tag were generated by performing the LR reaction between pENTR/D-TOPO-Slit2N or pENTR/D-TOPO-Slit2-C and pAD/CMV/V5-DEST (Life Technologies). The expression construct was cut with Pac and transfected into HEK-293A cells to produce crude adenoviral stock. Amplified virus was purified and concentrated using the Vivapure® adenopack 100 (Sartorius Stedim Biotech) and buffer exchanged to 10 mM Tris-Cl at pH 8.0, 2 mM MgCl2, 4% w/v sucrose. Adenovirus titer was calculated using an Adeno-X™ Rapid Titer kit (Clontech). For primary adipocytes a concentration of 10^8 pfu/well was used and 10^10 pfu/mouse were used for in vivo experiments. Expression levels of Slit2-N and Slit2-C were confirmed after 48 hours post infection by Western blot analysis using a V5 antibody (Life Technologies). Expression of Slit2-N and Slit2-C was performed by amplification from mouse Slit2 cDNA and ligated into the pENTR dual selection vector with a signal peptide sequence.

primary inguinal cells = test: Thermogenic gene expression in primary inguinal cells with adenoviral overexpression; assay type: cell-based, Mus musculus
Procedure: Inguinal and brown stromal-vascular fractions were obtained from 6 weeks old male or newborn mice (postnatal days 5-10) for white and brown fat cultures, respectively. Inguinal fat tissue was dissected and washed with PBS, minced and digested for 45 min at 37° C. in PBS containing 10 mM CaCl2), 2.4 U/ml dispase II (Roche) and 10 mg/ml collagenase D (Roche). Brown fat tissue was dissected, washed with PBS, minced and digested for 45 min at 37° C. in PBS containing 1.3 mM CaCl2, 123 mM NaCl, 5 mM KCl, 5.0 mM glucose, 100 mM HEPES, 4% BSA and 1.5 mg/ml collagenase B (Roche). Digested tissue was filtered through a 100-μm cell strainer and centrifuged at 600 g for 10 min. […] For adenoviral overexpression of Slit2-FL, Slit2-N, Slit2-C, LacZ or Cre, virus was added at day 2 of differentiation at a titer of 10^8 particles/well and cells were analyzed at day 6-7. […]
as §2, with “[…].” for “miRNA. All primers used are listed with their sequences in Table 3 as follows:”

[1] = system: primary inguinal adipocytes; test: Thermogenic gene expression (qRT-PCR) in primary adipocytes treated with recombinant protein; assay type: cell-based, Mus musculus
Procedure: as §1, with “Where indicated, cells were treated with the drugs Erlotinib (SelleckChem), Lapatinib (Santa Cruz), PD0325901 (Santa Cruz), Propranolol (SelleckChem), H89 dihydrochloride (Santa Cruz), SQ-22536 (Santa Cruz) for indicated time points and concentrations.” left out
as §2, with “[…].” for “miRNA. All primers used are listed with their sequences in Table 3 as follows:”

[2] = Slit2-C-transduced cells, FIG. 10B
[3] = lean mice, Slit2-C adenovirus, FIG. 6D
[4] = i.v. Slit2 adenovirus vs LacZ, lean mice, day 7, FIG. 4E

B1: Slit2-C: ~50 kDa C-terminal cleavage fragment of Slit2 beginning at TSP (SEQ ID NO: 22); adenovirally expressed or purified FLAG-tagged protein (protein, listed as Homo sapiens)
chain: TSPCDNFDCQNGAQCIIRINEPICQCLPGYLGEKCEKLVSVNFVNKESYLQIPSAKVRPQTNITLQIATDEDSGILLYKGDKDHIAVELYRGRVRASYDTGSHPASAIYSVETINDGNFHIVELLTLDSSLSLSVDGGSPKVITNLSKQSTLNFDSPLYVGGMPGKNNVASLRQAPGQNGTSFHGCIRNLYINSELQDFRKMPMQTGILPGCEPCHKKVCAHGMCQPSSQSGFTCECEEGWMGPLCDQRTNDPCLGNKCVHGTCLPINAFSYSCKCLEGHGGVLCDEEEDLFNPCQMIKCKHGKCRLSGVGQPYCECNSGFTGDSCDREISCRGERIRDYYQKQQGYAACQTTKKVSRLECRGGCAGGQCCGPLRSKRRKYSFECTDGSSFVDEVEKVVKCGCARCAS
modifications: FLAG tag
notes: adenovirally expressed or purified FLAG-tagged protein
activation of protein kinase C (PKC) substrates and ATGL S406 (PKA signaling pathway; FIG. 10E): minimal | protein levels of UCP1 (PKA signaling pathway; Slit2-C overexpression, FIGS. 10B, 10F): increased | phosphorylation of hormone sensitive lipase (HSL S660) (PKA signaling pathway; [2]): induced | total HSL (PKA signaling pathway; [2]): unaffected | phosphorylation of PKA substrates (PKA signaling pathway; Slit2-C-transduced vs lacZ-transduced cells, FIG. 10B): robust phosphorylation | PKA signaling after treatment with conditioned media (PKA signaling pathway): increased | subset of PKA substrate phosphorylations after purified protein treatment (PKA signaling pathway; time-dependent and dose-dependent, FIGS. 10M, 11F): increased | induction of Ucp1 mRNA in iWAT (lean mice; lean mice injected with Slit2-C adenovirus, FIG. 6C): 3 fold | expression of mitochondrial genes (Atp5b, Uqcrb, Atp6vOa2, Atp9b, Cox5a) in BAT (lean mice; [3]): upregulation | transcriptional regulators Prdm16, Nrf1, and Erra in classical brown fat (lean mice; [3]): significant changes | thermogenic gene expression in primary inguinal cells (primary inguinal cells; Slit2-C vs LacZ virus, day 7, FIG. 6A): comparable to full-length Slit2 | changes in thermogenic gene expression in white and brown adipocytes in culture ([1]; 2 h after purified protein treatment, FIG. 10N): induced

B2: Slit2: Slit family secreted extracellular matrix protein, full length ~180 kDa; used as commercial recombinant protein or adenovirally expressed (protein)
chain: QACPAQCSCSGSTVDCHGLALRSVPRNIPRNTERLDLNGNNITRITKIDFAGLRHLRVLQLMENRISTIERGAFQDLKELERLRLNRNNLQLFPELLFLGTAKLYRLDLSENQIQAIPRKAFRGAVDIKNLQLDYNQISCIEDGAFRALRDLEVLTLNNNNITRLSVASFNHMPKLRTFRLHSNNLYCDCHLAWLSDWLRQRPRVGLYTQCMGPSHLRGHNVAEVQKREFVCSGHQSFMAPSCSVLHCPAACTCSNNIVDCRGKGLTEIPTNLPETITEIRLEQNSIRVIPPGAFSPYKKLRRLDLSNNQISELAPDAFQGLRSLNSLVLYGNKITELPKSLFEGLFSLQLLLLNANKINCLRVDAFQDLHNLNLLSLYDNKLQTVAKGTFSALRAIQTMHLAQNPFICDCHLKWLADYLHTNPIETSGARCTSPRRLANKRIGQIKSKKFRCSGTEDYRSKLSGDCFADLACPEKCRCEGTTVDCSNQRLNKIPDHIPQYTAELRLNNNEFTVLEATGIFKKLPQLRKINFSNNKITDIEEGAFEGASGVNEILLTSNRLENVQHKMFKGLESLKTLMLRSNRISCVGNDSFIGLGSVRLLSLYDNQITTVAPGAFDSLHSLSTLNLLANPFNCNCHLAWLGEWLRRKRIVTGNPRCQKPYFLKEIPIQDVAIQDFTCDDGNDDNSCSPLSRCPSECTCLDTVVRCSNKGLKVLPKGIPKDVTELYLDGNQFTLVPKELSNYKHLTLIDLSNNRISTLSNQSFSNMTQLLTLILSYNRLRCIPPRTFDGLKSLRLLSLHGNDISVVPEGAFNDLSALSHLAIGANPLYCDCNMQWLSDWVKSEYKEPGIARCAGPGEMADKLLLTTPSKKFTCQGPVDITIQAKCNPCLSNPCKNDGTCNNDPVDFYRCTCPYGFKGQDCDVPIHACISNPCKHGGTCHLKEGENAGFWCTCADGFEGENCEVNIDDCEDNDCENNSTCVDGINNYTCLCPPEYTGELCEEKLDFCAQDLNPCQHDSKCILTPKGFKCDCTPGYIGEHCDIDFDDCQDNKCKNGAHCTDAVNGYTCVCPEGYSGLFCEFSPPMVLPRTSPCDNFDCQNGAQCIIRINEPICQCLPGYLGEKCEKLVSVNFVNKESYLQIPSAKVRPQTNITLQIATDEDSGILLYKGDKDHIAVELYRGRVRASYDTGSHPASAIYSVETINDGNFHIVELLTLDSSLSLSVDGGSPKVITNLSKQSTLNFDSPLYVGGMPGKNNVASLRQAPGQNGTSFHGCIRNLYINSELQDFRKMPMQTGILPGCEPCHKKVCAHGMCQPSSQSGFTCECEEGWMGPLCDQRTNDPCLGNKCVHGTCLPINAFSYSCKCLEGHGGVLCDEEEDLFNPCQMIKCKHGKCRLSGVGQPYCECNSGFTGDSCDREISCRGERIRDYYQKQQGYAACQTTKKVSRLECRGGCAGGQCCGPLRSKRRKYSFECTDGSSFVDEVEKVVKCGCARCAS
PKA signaling after treatment with conditioned media (PKA signaling pathway): increased | vascular and neuronal markers in fat or skeletal muscle (lean mice; 7 days postinjection, FIGS. 12D-12F): did not change | induction of PRDM16 in brown fat (lean mice; i.v. Slit2 adenovirus): greater than 2 fold | other thermogenic genes or UCP1 protein in brown fat (lean mice; i.v. Slit2 adenovirus): without any changes | induction of Ucp1 and Elovl3 in inguinal adipose tissue (lean mice; i.v. Slit2 adenovirus vs LacZ, day 7, FIG. 3F): 2 fold | induction of Prdm16 in iWAT (lean mice; [4]): 1.5 fold | induction of Ucp1 in iWAT (lean mice; [4]): 2.5 fold | lipolysis or lipogenesis gene expression in the liver (lean mice; i.v. Slit2 adenovirus, FIG. 4A): No changes | skeletal muscle gene expression of Glut1, Glut4 and Tnfa (lean mice; i.v. Slit2 adenovirus, FIG. 4B): no gene expression changes | white fat selective genes, including Leptin and Resistin (lean mice; iWAT, i.v. Slit2 adenovirus, FIG. 4E): strongly suppressed | increase in Ucp1 mRNA (primary inguinal cells; adenovirus on day 2 of differentiation, analyzed day 7, vs lacZ, FIG. 3D): 8 fold | expression of other genes associated with thermogenesis, including Dio2 and Cidea ([1]; recombinant Slit2 protein 1 μg/ml, 24 hours, FIG. 3A): large increases | increase in Ucp1 mRNA ([1]; recombinant Slit2 protein 1 μg/ml, 24 hours, fully differentiated primary inguinal adipocytes, FIG. 3A): ~ 3 fold

Source: US12702694B2, “Methods for identification, assessment, prevention, and treatment of metabolic disorders using SLIT2” (Dana-Farber Cancer Institute, Inc., priority 2015, dated 2026)
